Laboratory results published in patent US20250122288A1 (ARGENX, published 2025).

Key:
[1] = target: T1, neonatal Fc receptor (FcRn) (human, UniProt P55899 24-365; P61769 21-119); test: in vitro FcRn occupancy assay
T1 construct: whole, on cells; also called human FcRn

[2] = target: T1, neonatal Fc receptor (FcRn); test: in vitro FcRn occupancy assay; reference implied to be two-armed TA-HEL-ABDEG
[3] = target: T1, neonatal Fc receptor (FcRn); test: FcRn occupancy assay, 'previous studies'

T1 sequence (P55899 24-365 limits assumed, form in doubt, chain 1 of 2): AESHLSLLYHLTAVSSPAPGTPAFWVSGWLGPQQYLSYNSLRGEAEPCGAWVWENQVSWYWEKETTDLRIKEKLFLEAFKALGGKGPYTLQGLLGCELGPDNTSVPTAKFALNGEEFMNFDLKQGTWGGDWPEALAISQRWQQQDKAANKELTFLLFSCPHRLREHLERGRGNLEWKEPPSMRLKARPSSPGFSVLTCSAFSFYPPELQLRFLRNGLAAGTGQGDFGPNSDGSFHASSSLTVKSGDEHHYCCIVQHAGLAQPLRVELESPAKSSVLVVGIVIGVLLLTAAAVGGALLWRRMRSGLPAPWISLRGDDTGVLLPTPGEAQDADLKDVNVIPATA
T1 sequence (P61769 21-119 limits assumed, form in doubt, chain 2 of 2): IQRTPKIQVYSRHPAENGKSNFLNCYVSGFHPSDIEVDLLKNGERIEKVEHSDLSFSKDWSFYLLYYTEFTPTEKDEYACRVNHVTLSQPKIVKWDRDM

Binder | IC50 [1] [nM] | fold improvement in FcRn occupancy [2] [fold] | IC50 [3] [nM]
bivalent (TA) HEL-ABDEG (antibody, human IgG1, kappa, Two-armed anti-hen egg lysozyme antibody with an Fc-ABDEG region; Copies of 2 follow from 'bivalent (TA)') heavy: QVQLQESGPGLVRPSQTLSLTCTVSGFSLTGYGVNWVRQPPGRGLEWIGMIWGDGNTDYNSALKSRVTMLKDTSKNQFSLRLSSVTAADTAVYYCARERDYRLDYWGQGSLVTVSSASTKGPSVFPLAPSSKSTSGGTAALGCLVKDYFPEPVTVSWNSGALTSGVHTFPAVLQSSGLYSLSSVVTVPSSSLGTQTYICNVNHKPSNTKVDKKVEPKSCDKTHTCPPCPAPELLGGPSVFLFPPKPKDTLYITREPEVTCVVVDVSHEDPEVKFNWYVDGVEVHNAKTKPREEQYNSTYRVVSVLTVLHQDWLNGKEYKCKVSNKALPAPIEKTISKAKGQPREPQVYTLPPSRDELTKNQVSLTCLVKGFYPSDIAVEWESNGQPENNYKTTPPVLDSDGSFFLYSKLTVDKSRWQQGNVFSCSVMHEALKFHYTQKSLSLSPGK light: DIQMTQSPSSLSASVGDRVTITCRASGNIHNYLAWYQQKPGKAPKLLIYYTTTLADGVPSRFSGSGSGTDYTFTISSLQPEDIATYYCQHFWSTPRTFGQGTKVEIKRTVAAPSVFIFPPSDEQLKSGTASVVCLLNNFYPREAKVQWKVDNALQSGNSQESVTEQDSKDSTYSLSSTLTLSKADYEKHKVYACEVTHQGLSSPVTKSFNRGEC | 14 |  | 
one-armed (OA) HEL-ABDEG (antibody, human IgG1, kappa, One anti-HEL Fab joined by a natural IgG1 hinge to the N-terminus of Fc-ABDEG; The Fc is a knob-into-hole heterodimer) heavy: QVQLQESGPGLVRPSQTLSLTCTVSGFSLTGYGVNWVRQPPGRGLEWIGMIWGDGNTDYNSALKSRVTMLKDTSKNQFSLRLSSVTAADTAVYYCARERDYRLDYWGQGSLVTVSSASTKGPSVFPLAPSSKSTSGGTAALGCLVKDYFPEPVTVSWNSGALTSGVHTFPAVLQSSGLYSLSSVVTVPSSSLGTQTYICNVNHKPSNTKVDKKVEPKSCDKTHTCPPCPAPELLGGPSVFLFPPKPKDTLYITREPEVTCVVVDVSHEDPEVKFNWYVDGVEVHNAKTKPREEQYNSTYRVVSVLTVLHQDWLNGKEYKCKVSNKALPAPIEKTISKAKGQPREPQVYTLPPSRDELTKNQVSLWCLVKGFYPSDIAVEWESNGQPENNYKTTPPVLDSDGSFFLYSKLTVDKSRWQQGNVFSCSVMHEALKFHYTQKSLSLSPG DKTHTCPPCPAPELLGGPSVFLFPPKPKDTLYITREPEVTCVVVDVSHEDPEVKFNWYVDGVEVHNAKTKPREEQYNSTYRVVSVLTVLHQDWLNGKEYKCKVSNKALPAPIEKTISKAKGQPREPQVYTLPPSRDELTKNQVSLSCAVKGFYPSDIAVEWESNGQPENNYKTTPPVLDSDGSFFLVSKLTVDKSRWQQGNVFSCSVMHEALKFHYTQKSLSLSPG light: DIQMTQSPSSLSASVGDRVTITCRASGNIHNYLAWYQQKPGKAPKLLIYYTTTLADGVPSRFSGSGSGTDYTFTISSLQPEDIATYYCQHFWSTPRTFGQGTKVEIKRTVAAPSVFIFPPSDEQLKSGTASVVCLLNNFYPREAKVQWKVDNALQSGNSQESVTEQDSKDSTYSLSSTLTLSKADYEKHKVYACEVTHQGLSSPVTKSFNRGEC | 7 | 2 | 
efgartigimod (other) DKTHTCPPCPAPELLGGPSVFLFPPKPKDTLYITREPEVTCVVVDVSHEDPEVKFNWYVDGVEVHNAKTKPREEQYNSTYRVVSVLTVLHQDWLNGKEYKCKVSNKALPAPIEKTISKAKGQPREPQVYTLPPSRDELTKNQVSLTCLVKGFYPSDIAVEWESNGQPENNYKTTPPVLDSDGSFFLYSKLTVDKSRWQQGNVFSCSVMHEALKFHYTQKSLSLSPGK | 6 |  | 
mAb37-ABDEG (parental) (antibody) chain 1: QVQLVQSGAEVMKPGSSVKVSCKASGYTFSWYHLEWVRQAPGHGLEWMGEIDPGTFTTNYNEKFKARVTFTADTSTSTAYMELSSLRSEDTAVYYCARFSHFSGSNHDYFDYWGQGTLVTVSSASTKGPSVFPLAPSSKSTSGGTAALGCLVKDYFPEPVTVSWNSGALTSGVHTFPAVLQSSGLYSLSSVVTVPSSSLGTQTYICNVNHKPSNTKVDKKVEPKSCDKTHTCPPCPAPELLGGPSVFLFPPKPKDTLYITREPEVTCVVVDVSHEDPEVKFNWYVDGVEVHNAKTKPREEQYNSTYRVVSVLTVLHQDWLNGKEYKCKVSNKALPAPIEKTISKAKGQPREPQVYTLPPSRDELTKNQVSLTCLVKGFYPSDIAVEWESNGQPENNYKTTPPVLDSDGSFFLYSKLTVDKSRWQQGNVFSCSVMHEALKFHYTQKSLSLSPG chain 2: EIVMTQSPATLSVSPGERATLSCRASQSIGTNIHWYQQKPGQAPRLLIYYASESISGIPARFSGSGSGTEFTLTISSLQSEDFAVYYCQQSWSWPTTFGGGTKVEIKRTVAAPSVFIFPPSDEQLKSGTASVVCLLNNFYPREAKVQWKVDNALQSGNSQESVTEQDSKDSTYSLSSTLTLSKADYEKHKVYACEVTHQGLSSPVTKSFNRGEC |  |  | > 100
